# Test results published in the DeepSol protein solubility set.
# Test: soluble on expression in E. coli; label from the status in PepcDB or PDB records
row,Sequence,soluble on expression in E. coli
1,MYLKRPIWSDGASATPENPSESETGEESDAASMVVEELVTSLNTQRLYRELTLSLRTGLRDACAEFSFLRIRGLRSLLKTLRTVADSDSIIRLFSHTQTISDLQLVPVLFQHSLKEAEDDKVTSLDHIFSVEPMKITSPSTDAEVAVALRVLEGCCLLHPQSTVLAHKHGAVRVMMNVLSTRGVLEQGACLDALISVLLDSSANQVDFGACNGIEEVAMLMRDKQADENLSIYTIKIAVNEDSFPFCLFWLRCGEFLLLLVGHVNGKDRSPIASVNEDIRRLLGEKSASLIWAASQFGSTGDPEQRITALHIQAGRVLESLDLY,soluble
2,MYMKHIENGTRIEGEYIKNKVIQYNMSILTDEVKQPMEEVSLVVKNEEGKIFGGVTGTMYFYHLHIDFLWVDESVRHDGYGSQLLHEIEGIAKEKGCRLILLDSFSFQAPEFYKKHGYREYGVVEDHPKGHSQHFFEKRL,soluble
3,MYNSKQFLRTVNWHFVNSCNMSCKYCFVSCCKELPLEESISVLEKLKGHFDRINFVGGEPTVSSKLIPLVKKAKEYGFIVSMVTNGFNLYHKPETFDEILTDFSIIGISIDSLNENTNVLIGRSVKNSVLSRDDYIDLCKKIKLAGCKLKINTVVSRVNLDENFNDFYETVMPDRIKLLQVLRPAGRLKQDYTDFLIEEDDYLEFVQRHHKFSEVICSENNELMLNSYYILNSDACFLDNKSGCISGSLLENDLKSVLKNVYVDENKYRARYA,not soluble
4,MYPYIKLIATLFRAKNSPQMNLDEKSVLNCRAGLTDIDVFVELNNARHLTYMEFGRWDFAQRTGLLSLMRKNKWAFAVGGASVRYRRRIAFWKKFTVTTQVICHDGRWFYFLQETHIKDKVCSSALIKAAFTSKQGLVPATEVLAAYGKTTPNFDVPDWVNAWIDAESQRPWPLEHHHHHH,soluble
5,MYQLSRTQILPVPLTVAWDFFSDPRNLAAITPPDMGFVITSPVPERTHAGMVVTYAVSPFGGLRLPWVTEITHCAEPSLFVDEQRFGPYRFWHHQHHFLEVSGGVEMRDIVHYILPFGIIGRLSAPVVAKRLKAIFDYRRDTLAVRFAALSRGALEHHHHHH,not soluble
6,MYSGVQIRTGSNPKIRRNKIWGGQNGGILVYNSGLGCIEDNEIFDNAMAGVWIKTDSNPTLRRNKIHDGRDGGICIFNGGRGLLEENDIFRNAQAGVLISTNSHPILRKNRIFDGFAAGIEITNHATATLEGNQIFNNRFGGLFLASGVNVTMKDNKIMNNQDAIEKAVSRGQCLYKISSYTSYPMHDFYRCHTCNTTDRNAICVNCIKKCHQGHDVEFIRHDRFFCDCGAGTLSNPCTLAGEPTHDTDTLYDSAPPIESNTLQHN,soluble
7,MYSPESMNSNISSPSPPSSSSLNAPSLADAPEVRSDDGEAETSEPSTSVTAVPMEIVSQASTSAPVNQLLASGIDMSSVIKNNAVLQALLASASAGGFGDNAGLTMSKLLTAALANGSTAVAKRDAGSPRTDIPKKTRLKVFSNGFFMTFDKLSSCQKKYFWRCEYKNTCKARMHTDIVTEKILTFIHEHNHSAPIDEEVRLYGLDPTNIERNRVYIVGNVADPNQRRKIRKQVADREAAAKRLVQQQEEEQQKQQSASSIVAARAAYAQAMQNGSIPTSSGVASFLQSTSATAPMTSHSMLLAQMPFLNNIKTEMSNMVKNEQFTPERYTQHMSPNLPLQTATIAPLIIPTENYDSPSYRQPAIKRKATDLTNEEHDLRRDPMFQPTFELARKLRKLWKGEPNRYPRTTTTPTHHFEFFLSKNDGTDEHLYVPMRINLRDEAHLKEALQDFCGQQCIGMLLFGISPKISVMFNQPMLNNWDNNQFFLLDISNPSRWRLMYVDDQAV,not soluble
8,MYVCHFENCGKAFKKHNQLKVHQFSHTQQLPYECPHEGCDKRFSLPSRLKRHEKVHAGYPCKKDDSCSFVGKTWTLYLKHVAECHQD,soluble
9,MYVMTQSGWLEVICGCMFSGKSEELIRRVRLAQFAKQEVKVFKPTIDNRYSEDAVVSHNGNSVIAIPVATPAEMFRYISAATDVVAIDEVQFFSDDIIDVVQTLADGGCRVITAGLDQDFRGEPFGPVPALMAIAESVTKLQAVCTVCGSPASRTQRLINGAPASYDDPVILVGASEAYEPRCRHHHEVPGKPKKRYNRPLAGHTGE,not soluble
10,MYYYVNEHEKALADFDKVIELNPKEDKTYYWKGLVYEYLKQYESSLVYLNKAIQLNDKNYKYYELRSLVYKQLREYDKAYSDVNVAIKLNQNNGILYSLRGLLNKYLNKYNDAIIDYNKSIELMPEFIAPYKSLLSIYLQTQNYEAGLEVANKAINIEQSWILYSTRGYLFLMLQSYNEAISDSNRAIKLNSGFADSYLTRGKAYLALKEYKKAIEDFDRAIELDSDNIDKVKQEAYEALAEMGEK,not soluble
11,NEIKKILIMPTWRDWLNSTYAFDNSDYMKHYLSLINSPKLQALINEYDIEINFYPHYRSQMFFKSFLTDNKSDINYIELGDKTVQELLVEHDLLITDYSSVSFDFSYMKKPVIFYHFDVKKFFRKGILRSIKDTFIGDIAHTEKELISLIEDNIKNPKNMEYQNLSSIFDYTDHHNNQRVYHSILDLIQDNT,not soluble
12,NFMLTQPHSVSESPGKTVTISCTRSSGSIASYYVQWYQQRPGSSPTTVIYEDSQRPSGVPDRFSGSIDSSSNSASLTISGLKTEDEADYYCQSYDSSNVVFGGGTKLTVLGQPKAAPSVTLFPPSSEELQANKATLVCLISDFYPGAVTVAWKADSSPVKAGVETTTPSKQSNNKYAASSYLSLTPEQWKSHRSYSCQVTHEGSTVEKTVAPTECS,soluble
13,NGEEHEQTHRAIFRFVPRHEDELELEVDDPLLVELQAEDYWYEAYNMRTGARGVFPAYYAIEVTKEPEHMA,soluble
14,NGFDVREGRKLLVGGGSGIVSLYPIADQETDALISAKTRDELIFKDRFPESRRFIATDDGSDGFHGFAHELLQRINIDSYEAIYVCGPEQMMYKVLQVLKGRKVFVQFS,not soluble
15,NIPEIENANLKPALKDSVLPDGFYSTTNHPTHVKVNDEWIEVANPKMDAVIVVYPEEKRAETKVIRKVKKGDFVLIGHNGIRVMPPEKSREAGQLFEFMNSEVSSEKPKEAIIKRIAKEMHEIREEYKKTGTGGIAIVGGPAIIHTGGGPALAKMVELGYIQAILAGNALATHDIESALYGTSLGVNIKTAKPVTGGHKHHIYAINAINDAGNIKNAVESGVLKEGIMYQCIKNNIPYVLAGSIRDDGPIPDVITDSMVAQDKMRTTVMDKKMVIMLSTLLHSVATGNLMPSYIKTVCVDIQPSTVTKLMDRGTSQAIGVVTDVGVFLVLLLKELER,not soluble
16,NKDFWIKGMGNFTLAKGRYEVYEEPDYASYGQGYRSRIGQPINFNYGYIAERLFIDENDVANSPSQTSFNGGAMPGDIKYKDLNNDGKITSEDQIFLGYPNQPEITYGFGFSTGYKGFDLSMFFQGNARVSFFIDPRNTSPFVNYDAGGKTGVQQCLDVIAKDHWSEDNRNIYAFWPRLSPTLVENNMQTSTWWMHDGSFIRLKTVELGYTFSQKALKKIGVQSLRLYLTGSNLLTFSKFKLWDAEMGNNGLGYPIQRVYNLGININF,not soluble
17,NKVNDESVEYFGQRNEFRQASDFMEERISGMTNISIAIKTNESQGIAAPDFLNTIGEFSSWLRDQPETDHVATLADVYKRLNKNMHGDDEAYYLLPQERELAAQYLLLYEMSLPYGLDLNNQINVDKSSIKMVLTVANLGSVELVDLENRIYQWFAEHAPQYQVVASSPSLMFAHIGETN,not soluble
18,NRANPDPNCCLGVFGLSLYTTERDLREVFSKYGPIADVSIVYDQQSRRSRGFAFVYFENVDDAKEAKERANGMELDGRRIRV,soluble
19,NSLTTHYRRSQLIALPVPGGKAKVEYCYAVNVPGDREIVTHSFAEWAVGDFNRQKETVLCDKLTAGSKITTECPSESFVGSRKHNGLSTSAKVMSMNASARSNSFVVNSGK,not soluble
20,NSNNKRAPYWTNTEKMEKRLHAVPAANTVKFRCPAGGNPMPTMRWLKNGKEFKQEHRIGGYKVRNQHWSLIMESVVPSDKGNYTCVVENEYGSINHTYHLDVVERSPHRPILQAGLPANASTVVGGDVEFVCKVYSDAQPHIQWIKHVEKNGSKYGPDGLPYLKVLKAAGVNTTDKEIEVLYIRNVTFEDAGEYTCLAGNSIGISFHSAWLTVLPAPGRE,soluble
21,NTEEKFVRAEEKAKRSKMLIDMKSEQYNMITEKIEKTRKSRHDIHHHINVVYQLAKENKIEQLIEYLEEYNKIYSTKEPMVYCNNSTVDAILNHYILLAKDNGIEVHLNVALPEELKIRDTDLCIVIGNLLENAIEASEKEENKRIKLRINRSNEYICMLVSNLYNGEIKKGHSGYYSRKREFKDTGIGLSSVSAVVEKYDGRMEVDHTNGEFNVFIMMANISSNLT,not soluble
22,NTKDEAYNVATQATYAVAEQQTGSGDVVAVDDNVQMSKVSTVTINVLGNDIIADGVSVEISAMSAPSKGTVKLLSDGSIQYTPAKRFKNQDSFS,not soluble
23,PAMADTIKLRIIETTDIHTNVMDYDYYKDQPSQQIGLSRAATLVKQAKSEVENSVLVDNGDLIQGSPMGDYMAAKGIQTGEVHPVYKAMNQLHYDVGNIGNHEFNYGLDFLQNTLAGANFPYINANVFDKKTGEHYFQPYLIKTHSFKDTDGEVHQVKVGYIGFVPPQIMVWDKKNLEGNVVAKDIKETAEKLIPQMKKEGADIIVAIPHSGVSTDPYKLGAENSVYYLTQVKGIDAIAFGHSHAVFPGKGFENLQGVDNNKGTINGVTAVMPGRWGSHVGVMDLVIEQKDGQWQVVEGQSEARPIFDKAAKKSLAEADQCIIRALEDDHKGTREFVNQ,not soluble
24,PDKEYHTLHWIIMGALSCATRTVQIMTPYFIPDRSLVSALVTTALRGVEVTLVLPEKNNLPFVHWATRAYLWELIQQGIRVFYQPPPFAHTKLFIVDGLWSMIGSANLDPRSLRLNFELNLEVYDRELAGTLSRHFAVTVARSRQVSLTEMDGR,not soluble
25,PDLTAALRDVRQQYESVAAKNLQEAEEWYKSKFADLSEAANRNNDALRQAKQESTEYRRQVQSLTCEVDALK,soluble
26,PFLELDTNLPANRVPAGLEKRLCAAAASILGKPADRVNVTVRPGLAMALSGSTEPCAQLSISSIGVVGTAEDNRSHSAHFFEFLTKELALGQDRILIRFFPLESWQIGKIGTVMTFL,soluble
27,PGAPSTVRISKNVDGIHLSWEPPTSPSGNILEYSAYLAIRTAQMQDNPSQLVFMRIYCGLKTSCTVTAGQLANAHIDYTSRPAIVFRISAKNEKGYGPATQIRWLQGNSK,soluble
28,PGVGDYKGLLKWTSHNQYEKEVKKADEQYGKLYAKFADMPIEKVAKDPQAKQIAQNLFNTYCIQCHGSDAKGSKGFPNLTDSDWLWGGDPDKIHETIEKGRVATMPAWGPALGEEGVKDVAHYVMSLSKPEGQYDEERAARGQALFSGPPANCFTCHGDKGQGIQGLGPNLTDDVWLWGGTQKSIIETITNGRSSQMPAWGHFLDKDKLHIMTAYVWGLSDKDGKAPVKKAEPAPTPAPAAEPAASAPAEAAQAVSEAKPAAAEPKAEEKAAPAAKADGK,not soluble
29,PITLVKDILSKPPITAHSNISIMEAAKILIKHNINHLPIVDEHGKLVGIITSWDIAKALAQNKKTIEEIMTRNVITAHEDEPVDHVAIKMSKYNISGVPVVDDYRRVVGIVTSEDISRLFGGKK,soluble
30,PKAPVTGYVRFLNERREQIRTRHPDLPFPEITKMLGAEWSKLQPAEKQRYLDEAEKEKQQYLKELWAYQQSEAYKVCTE,soluble
